Results from patent US20240010735A1 (EISAI R AND D MANAGEMENT, published 2024).

Assays:
Assay in all cases: ELISA: Fc-His proteins (1 nM) captured on anti-6-His antibody, antibody A 10 µg/mL with human IgG 100 µg/mL, HRP anti-mouse IgG, OD450 as % of mouse EphA4-Fc-His
[1] = target: T1, mouse EphA8 extracellular region-Fc-His protein (mouse; human, UniProt O09127 27-541)
T1 construct: extracellular domain; not shown: Fc region of human IgG1; histidine tag
T1 sequence (looked up): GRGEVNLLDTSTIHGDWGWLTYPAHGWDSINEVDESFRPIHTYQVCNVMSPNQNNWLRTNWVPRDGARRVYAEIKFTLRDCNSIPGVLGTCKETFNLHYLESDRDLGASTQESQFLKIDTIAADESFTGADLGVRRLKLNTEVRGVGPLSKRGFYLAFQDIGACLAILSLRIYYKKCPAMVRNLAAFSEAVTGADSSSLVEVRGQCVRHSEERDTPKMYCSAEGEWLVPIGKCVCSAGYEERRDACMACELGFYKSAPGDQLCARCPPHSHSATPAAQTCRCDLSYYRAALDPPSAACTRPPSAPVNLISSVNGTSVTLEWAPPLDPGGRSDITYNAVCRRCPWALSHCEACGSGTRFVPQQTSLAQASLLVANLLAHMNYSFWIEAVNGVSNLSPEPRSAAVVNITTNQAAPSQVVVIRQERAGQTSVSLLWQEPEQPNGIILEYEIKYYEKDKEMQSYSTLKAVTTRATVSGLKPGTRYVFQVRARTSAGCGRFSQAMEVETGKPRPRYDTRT
Procedure: (§1) Rabbit anti-6-His antibodies (Bethyl Laboratories) were coated onto the wells of a 96-well plate (Nunc). After incubating at 4° C. overnight, the wells were blocked at room temperature for 1 hour by 1% Block Ace (DS Pharma Biomedical). After washing 3 times with 0.05% Tween 20/PBS (Thermo […]), each Eph receptor of mouse extracellular region-Fc-His protein (final concentration 1 nM) was seeded into each well, and incubated at room temperature for 1 hour. After washing 3 times, human IgG solution (100 μg/mL, Sigma) and antibody A (10 μg/mL) were supplemented to the wells, and incubated at room temperature for 1 hour. Horseradish peroxidase-labeled donkey anti-mouse IgG antibody (Jackson ImmunoResearch Laboratories) was added, and incubated at room temperature for 1 hour. After washing 3 times, TMBZ (3,3′,5,5′-tetramethylbenzidine, Sigma) solution was added to the wells, and upon confirmation of modest coloring, an equal amount of quenching solution (1 N H₂SO₄, Wako Pure Chemicals) was added to the wells, and absorbance at 450 nm was read by a microplate reader (PerkinElmer).

[2] = target: T2, mouse EphB2 extracellular region-Fc-His protein (mouse; human, UniProt P54763 19-543)
T2 construct: extracellular domain; not shown: Fc region of human IgG1; histidine tag
T2 sequence (looked up): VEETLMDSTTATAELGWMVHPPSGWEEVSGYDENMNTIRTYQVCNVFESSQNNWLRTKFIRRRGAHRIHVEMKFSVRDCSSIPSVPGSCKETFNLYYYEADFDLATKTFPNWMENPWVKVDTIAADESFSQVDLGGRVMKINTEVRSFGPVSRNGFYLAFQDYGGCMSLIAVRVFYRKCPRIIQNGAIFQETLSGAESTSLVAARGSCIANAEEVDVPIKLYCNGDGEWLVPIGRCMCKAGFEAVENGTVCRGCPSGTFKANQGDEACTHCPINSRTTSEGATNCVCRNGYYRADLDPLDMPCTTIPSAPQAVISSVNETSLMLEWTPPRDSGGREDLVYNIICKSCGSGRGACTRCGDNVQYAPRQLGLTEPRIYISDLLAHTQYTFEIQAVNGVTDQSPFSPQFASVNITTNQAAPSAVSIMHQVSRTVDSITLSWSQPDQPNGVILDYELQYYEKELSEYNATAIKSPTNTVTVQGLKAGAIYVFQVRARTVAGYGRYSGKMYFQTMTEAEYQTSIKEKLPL
Procedure: as §1

[3] = target: T3, mouse EphB3 extracellular region-Fc-His protein (mouse; human, UniProt P54754 30-554)
T3 construct: extracellular domain; not shown: Fc region of human IgG1; histidine tag
T3 sequence (looked up): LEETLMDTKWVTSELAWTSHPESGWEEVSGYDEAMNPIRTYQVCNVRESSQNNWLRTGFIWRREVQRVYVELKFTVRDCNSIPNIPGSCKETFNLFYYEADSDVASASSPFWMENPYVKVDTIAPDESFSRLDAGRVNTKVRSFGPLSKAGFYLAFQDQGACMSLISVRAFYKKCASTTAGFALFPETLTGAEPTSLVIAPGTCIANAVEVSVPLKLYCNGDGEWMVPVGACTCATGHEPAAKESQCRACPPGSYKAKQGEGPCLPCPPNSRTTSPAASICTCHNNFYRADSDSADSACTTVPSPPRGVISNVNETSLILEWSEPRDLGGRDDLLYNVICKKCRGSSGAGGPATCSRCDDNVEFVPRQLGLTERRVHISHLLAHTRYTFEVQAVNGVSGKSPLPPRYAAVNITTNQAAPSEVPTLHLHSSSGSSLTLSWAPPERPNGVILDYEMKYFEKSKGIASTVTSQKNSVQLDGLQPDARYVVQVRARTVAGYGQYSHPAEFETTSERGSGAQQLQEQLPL
Procedure: as §1

Measured: binding result

B1: mouse anti-EphA4 monoclonal antibody (antibody A) (antibody, mouse IgG1, kappa, V domains shown)
VH: QVQLKQSGPSLVQPSQSLSITCTVSGFSLTRYGVHWVRQSPGKGLEWLGVIWRGGSTDYNAAFMSRLSITKDNSKSQVFFKMNSLQADDTAIYYCAKESLFGVYYDYGYYSMDYWGQGTSVTVSS
VL: DIQMTQSPSSLSASLGERVSLTCRASQEISGYLSWLQQKPDGTIKRLIYAASTLDSGVPKRFSGSRSGSDYSLTISSLESEDFADYYCLQYASYPLTFGAGTKLELKR
notes: purified from hybridoma supernatant
no binding (tested: 10 µg/mL): all assays above
